Measured values from US8580492B2, “Screening method for the identification of inhibitors of HIV Tat methylation by the lysine methyltransferase Set7/9” (priority 2007, dated 2013).
Ends that are not written are not given here.

Tests used:
Type in all cases: biochemical
p300 = biological target: T1, p300 (Homo sapiens, UniProt Q09472); test: In vitro acetylation assay with recombinant p300 and 14C-AcCoA; details: recombinant p300, 14C-AcCoA, autoradiography
T1 construct: Recombinant GST-p300 HAT was expressed in the BL21 strain of Escherichia coli; GST (N); made in house; host or cells: Escherichia coli BL21
T1 sequence (Q09472 1287-1663 limits assumed): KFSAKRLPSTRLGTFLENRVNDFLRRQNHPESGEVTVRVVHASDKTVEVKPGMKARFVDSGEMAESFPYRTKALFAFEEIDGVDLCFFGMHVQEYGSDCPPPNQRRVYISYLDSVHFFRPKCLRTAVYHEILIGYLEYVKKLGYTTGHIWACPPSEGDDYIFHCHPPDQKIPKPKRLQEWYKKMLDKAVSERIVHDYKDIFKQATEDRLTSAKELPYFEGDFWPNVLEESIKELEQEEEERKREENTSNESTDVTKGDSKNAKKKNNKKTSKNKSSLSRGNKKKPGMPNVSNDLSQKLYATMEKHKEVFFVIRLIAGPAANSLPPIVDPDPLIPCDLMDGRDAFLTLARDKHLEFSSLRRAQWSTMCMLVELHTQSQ
Procedure: Recombinant GST-p300 HAT was expressed in the BL21 strain of Escherichia coli and purified on glutathione-Sepharose beads (Amersham Pharmacia Biotech) following manufacturer's protocol.
(§1) Methylation assays were performed as described. (Nishioka et al. (2002) supra. In brief, 2 μg of calf thymus histones (Sigma), synthetic Tat protein or recombinant GST-IκBα were incubated with 0, 0.5, 1 or 2 μg of recombinant Set9 (specific activity 182 mU/mg, Upstate) or 0, 1 and 2 μg of G9a (specific activity 98 mU/mg, Upstate) in a buffer containing 50 mM TrisHCl pH 8.5, 5 mM MgCl2, 4 mM DTT and 1.1 μCi of ^3H-labeled S-adenosyl methionine (SAM) (Perkin Elmer) 30 min at 30° C. Reactions were stopped with sodium dodecyl sulfate (SDS) sample buffer and fractionated in a 15% SDS-polyacrylamide gel electrophoresis (SDS-PAGE) gel. After Coomassie staining and destaining, gels were treated with Amplify (Amersham Biosciences) for 30 min, dried and exposed to hyper-film (Kodak) overnight. The reactions performed with Tat peptides contained 100 μM of the different peptides and 1 μg of Set9 enzyme and were fractionated in a 10-20% Tris-Tricine gel (BioRad). For mass-spectrometry analysis, reactions were performed in the presence of 2 mM SAM (New England Biolabs) and analyzed in a MALDI-TOF instrument. In vitro acetylation assays were performed as described. Ott et al. (1999) supra.

recombinant Set9 = biological target: T2, recombinant Set9 (Homo sapiens, UniProt Q8WTS6); test: In vitro methylation assay with recombinant Set9 (radiolabeled SAM autoradiography; MALDI-TOF with nonradioactive SAM); details: confirmed by MALDI-TOF
T2 construct: purchased Upstate
T2 sequence (Q8WTS6 whole entry, looked up): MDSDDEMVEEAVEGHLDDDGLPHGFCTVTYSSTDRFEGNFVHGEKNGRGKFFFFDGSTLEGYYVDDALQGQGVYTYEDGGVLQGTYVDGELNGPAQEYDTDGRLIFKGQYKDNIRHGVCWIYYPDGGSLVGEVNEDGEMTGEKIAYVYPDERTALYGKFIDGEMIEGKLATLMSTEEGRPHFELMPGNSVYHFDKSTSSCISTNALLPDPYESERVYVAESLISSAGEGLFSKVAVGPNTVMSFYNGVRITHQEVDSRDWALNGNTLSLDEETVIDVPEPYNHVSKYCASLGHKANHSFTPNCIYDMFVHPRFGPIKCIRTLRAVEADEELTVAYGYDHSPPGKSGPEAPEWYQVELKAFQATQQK
Procedure: as §1

G9a = test: In vitro methylation assay with recombinant G9a; details: recombinant G9a 0, 1 and 2 μg, radiolabeled SAM
Procedure: as §1

Molecule: K51me: ARM peptide monomethylated at K51 (ISYGRKK(Me)RRQRRRP)
- acetylation by p300 (p300): acetylated

Molecule: K50Ac: ARM peptide carrying an acetyl group at position 50 (ISYGRK(Ac)KRRQRRRP; not fully specified)
- methylation by Set9 (recombinant Set9): No methylation

B1: Tat protein: full-length synthetic Tat protein (72 amino acids) (peptide, UniProt P04608 1-72, looked up, fragment)
chain: MEPVDPRLEPWKHPGSQPKTACTNCYCKKCCFHCQVCFITKALGISYGRKKRRQRRRAHQNSQTHQASLSKQ
- methylation by Set9 (recombinant Set9): methylated in response to increasing amounts of Set9 enzyme
- methylation by G9a (G9a): did not result in methylation
